# Source: IntAct's records for PubMed 16983070
# B1: Rho guanine nucleotide exchange factor 7 (Homo sapiens), Q14155 (parent)
# chain: MNSAEQTVTWLITLGVLESPKKTISDPEGFLQASLKDGVVLCRLLERLLPGTIEKVYPEPRSESECLSNIREFLRGCGASLRLELLFPPSQPPQHLVTTILLSASTFDANDLYQGQNFNKVLSSLVTLNKVTADIGLGSDSVCARPSSHRIKSFDSLGSQSLHTRTSKLFQGQYRSLDMTDNSNNQLVVRAKFNFQQTNEDELSFSKGDVIHVTRVEEGGWWEGTLNGRTGWFPSNYVREVKASEKPVSPKSGTLKSPPKGFDTTAINKSYYNVVLQNILETENEYSKELQTVLSTYLRPLQTSEKLSSANISYLMGNLEEICSFQQMLVQSLEECTKLPEAQQRVGGCFLNLMPQMKTLYLTYCANHPSAVNVLTEHSEELGEFMETKGASSPGILVLTTGLSKPFMRLDKYPTLLKELERHMEDYHTDRQDIQKSMAAFKNLSAQCQEVRKRKELELQILTEAIRNWEGDDIKTLGNVTYMSQVLIQCAGSEEKNERYLLLFPNVLLMLSASPRMSGFIYQGKLPTTGMTITKLEDSENHRNAFEISGSMIERILVSCNNQQDLQEWVEHLQKQTKVTSVGNPTIKPHSVPSHTLPSHPVTPSSKHADSKPAPLTPAYHTLPHPSHHGTPHTTINWGPLEPPKTPKPWSLSCLRPAPPLRPSAALCYKEDLSKSPKTMKKLLPKRKPERKPSDEEFASRKSTAALEEDAQILKVIEAYCTSAKTRQTLNSTWQGTDLMHNHVLADDDQPSLDSLGRRSSLSRLEPSDLSEDSDYDSIWTAHSYRMGSTSRKSCCSYISHQN
# partner: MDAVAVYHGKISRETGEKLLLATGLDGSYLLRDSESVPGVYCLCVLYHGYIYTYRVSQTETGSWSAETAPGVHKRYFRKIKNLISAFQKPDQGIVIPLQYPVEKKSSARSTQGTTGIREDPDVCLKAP
# B2: SH2 domain-containing protein 1A (Homo sapiens), O60880-1 (parent)
# chain: B1 partner
# Variants of: B1
# Details: with SH2D1A
row,effect of a mutation on the interaction,Variant
1,disrupting interaction strength,W221P;W222G

# Variants of: B2
# Details: with arhg7_human ARHGEF7, Q14155
row,effect of a mutation on the interaction,Variant
1,disrupting interaction strength,MDAVAVYHGKISRETGEKLLLATGLDGSYLLRDSESVPGVYCLCVLYHGYIYTYRVSQTETGSWSAETAPGVHKRYFAKIKNLISAFQKPDQGIVIPLQYPVEKKSSARSTQGTTGIREDPDVCLKAP [R78A]
